Holding throughout (experiment): cell-based or functional assay
In assay [1] the target is hemagglutinin (HA) of virus strain Ck/HK/Yu22/02 (H5N1) (H5N1 avian influenza virus, strain Ck/HK/Yu22/02).
For assay [2], the target named is 14 strains of non-H5 viruses (H1~H13, Chicken NDV).
Assay [3] concerns the target H5 virus strain (fifteen strains of H5N1 viruses).
Assay [4] addresses hemagglutinin (HA) of H5N1 virus strain FJ1.5 (H5N1 avian influenza virus, strain FJ1.5).
The target in assay [5] is hemagglutinin (HA) of H5N1 virus strain GD1.1 (H5N1 avian influenza virus, strain GD1.1).
Assay [6] concerns the target hemagglutinin (HA) of H5N1 virus strain GD3.1 (H5N1 avian influenza virus, strain GD3.1).
Assay [7] has as its target hemagglutinin (HA) of H5N1 virus strain GD4.1 (H5N1 avian influenza virus, strain GD4.1).
In assay [8] the target is hemagglutinin (HA) of H5N1 virus strain HN3.1 (H5N1 avian influenza virus, strain HN3.1).
In assay [9] the target is hemagglutinin (HA) of H5N1 virus strain IDN1.1 (H5N1 avian influenza virus, strain IDN1.1).
For assay [10], the target named is hemagglutinin (HA) of H5N1 virus strain IDN3.1 (H5N1 avian influenza virus, strain IDN3.1).
Assay [11] addresses hemagglutinin (HA) of H5N1 virus strain IDN6.1 (H5N1 avian influenza virus, strain IDN6.1).
Assay [12] addresses hemagglutinin (HA) of H5N1 virus strain IDN8.1 (H5N1 avian influenza virus, strain IDN8.1).
Assay [13] concerns the target hemagglutinin (HA) of H5N1 virus strain Mixed1.1 (H5N1 avian influenza virus, strain Mixed1.1).
The target of assay [14] is hemagglutinin (HA) of H5N1 virus strain QH1.1 (H5N1 avian influenza virus, strain QH1.1).
For assay [15], the target named is hemagglutinin (HA) of H5N1 virus strain VNM2-2.1 (H5N1 avian influenza virus, strain VNM2-2.1).
The target of assay [16] is hemagglutinin (HA) of H5N1 virus strain VTM1.1 (H5N1 avian influenza virus, strain VTM1.1).
The target of assay [17] is hemagglutinin (HA) of H5N1 virus strain VTM4.1 (H5N1 avian influenza virus, strain VTM4.1).
The target of assay [18] is hemagglutinin (HA) of H5N1 virus strain YN2.1 (H5N1 avian influenza virus, strain YN2.1).
The target of assay [19] is hemagglutinin (HA) of H5N1 virus strain A1 (H5N1 avian influenza virus, strain A1).
For assay [20], the target named is hemagglutinin (HA) of H5N1 virus strain A2 (H5N1 avian influenza virus, strain A2).
The target in assay [21] is hemagglutinin (HA) of H5N1 virus strain A3 (H5N1 avian influenza virus, strain A3).
Assay [22] has as its target hemagglutinin (HA) of H5N1 virus strain A6 (H5N1 avian influenza virus, strain A6).
Assay [23] deals with hemagglutinin (HA) of H5N1 virus strain A7 (H5N1 avian influenza virus, strain A7).
Assay [24] has as its target hemagglutinin (HA) of H5N1 virus strain A8 (H5N1 avian influenza virus, strain A8).
In assay [25] the target is hemagglutinin (HA) of H5N1 virus strain B1 (H5N1 avian influenza virus, strain B1).
Assay [26] concerns the target hemagglutinin (HA) of H5N1 virus strain B3 (H5N1 avian influenza virus, strain B3).
Assay [27] has as its target hemagglutinin (HA) of H5N1 virus strain B4 (H5N1 avian influenza virus, strain B4).
Assay [28] addresses hemagglutinin (HA) of H5N1 virus strain B6 (H5N1 avian influenza virus, strain B6).
Assay [29] deals with hemagglutinin (HA) of H5N1 virus strain B7 (H5N1 avian influenza virus, strain B7).
For assay [30], the target named is hemagglutinin (HA) of H5N1 virus strain B8 (H5N1 avian influenza virus, strain B8).
In assay [31] the target is hemagglutinin (HA) of H5N1 virus strain C2 (H5N1 avian influenza virus, strain C2).
Assay [32] deals with hemagglutinin (HA) of H5N1 virus strain C3 (H5N1 avian influenza virus, strain C3).
Assay [33] addresses hemagglutinin (HA) of H5N1 virus strain D1 (H5N1 avian influenza virus, strain D1).
For assay [34], the target named is hemagglutinin (HA) of H5N1 virus strain D2 (H5N1 avian influenza virus, strain D2).
The target of assay [35] is hemagglutinin (HA) of H5N1 virus strain D3 (H5N1 avian influenza virus, strain D3).
Assay [36] deals with hemagglutinin (HA) of H5N1 virus strain E1 (H5N1 avian influenza virus, strain E1).
Assay [37] deals with hemagglutinin (HA) of H5N1 virus strain E2 (H5N1 avian influenza virus, strain E2).
Assay [38] deals with hemagglutinin (HA) of H5N1 virus strain F2 (H5N1 avian influenza virus, strain F2).
The target in assay [39] is hemagglutinin (HA) of H5N1 virus strain F3 (H5N1 avian influenza virus, strain F3).
Assay [40] has as its target hemagglutinin (HA) of H5N1 virus strain G1 (H5N1 avian influenza virus, strain G1).
Assay [41] has as its target hemagglutinin (HA) of H5N1 virus strain H2 (H5N1 avian influenza virus, strain H2).

B1: 8G9 chimeric antibody (antibody, V domains shown)
VH: QVQLQQPGVELVRPGASVKLSCKASGYTFTSFWMNWVKQRPDQGLEWIGRIDPYDSETHYNQKFKDKAILTVDKSSSTAYMQLSSLTSEDSAVYYCGRGIATLMVLPDYWGQGTSVTVSS
VL: DILMTQSPSSMSVSLGDTVSITCHASQDISSNMGWLQQKPGKSLKGLIYHGTNLEDGVPSRFSGSGSGPDYSLTISSLESEDFADYYCVQYIQFPWTFGGGTKLEIKR
Turning to B1, the hemagglutination inhibition (HI) activity (fold dilution) in assay [1] was determined as 16.

B2: 13D4 single chain antibody (scFv)
scFv: QVQLQQSGAELMKPGASVKISCKATGYTFSGHWIEWVKQRPGHGLEWIGEILPGSGNIHYNEKFKGKATFAADTSSNTAYMQLSSLTSEDSAVYYCARLGTTAVERDWYFDVWGQGTTVTESLEDPRVPSSNSGGGGSGGGGSGGGGSDIVMTQSQKFMSASVGDRVSVTCKASQNVGTHLAWYQQKPGQSPKALIYSASYRYSGVPDRFTGSGSGTDFTLTISNVQSGDLADYFCQQYNNFPLTFGAGTKLEIKR
The molecule B2 registered a hemagglutination inhibition (HI) activity (fold dilution (from 0.18 mg/ml)) in assay [1] of 8.

B3: monoclonal antibody 20A11 (antibody, V domains shown)
VH: QVQLQQSGAELMKPGASVKISCKATGYTFSGHWIEWVKQRPGHGLEWIGEILPGSGNIHYNEKFKGKATFAADTSSNTAYMQLSSLTSEDSAVYYCARLGTTAVERDWYFDVWGQGTSVTVSS
VL: DIVMTQSQKFMSASVGDRVSVTCKASQNVGTHLAWYQQKPGQSPKALIYSASYRYSGVPDRFTGSGSGTDFTLTISNVQSGDLADYFCQQYNNFPLTFGAGTKLEIKR
B3 returned a Positive number/total virus number, hemagglutination inhibition assay (of 14 virus strains positive) in assay [2] of 0. This molecule registered a Positive number/total virus number, hemagglutination inhibition assay (of 15 virus strains positive) in [3] of 15. Besides, the Hamaglutinin inhibition titer in assay [4], in assay [5], in assay [6], in assay [7], in [8] and in [9] was 12800 titer each time. The Hamaglutinin inhibition titer in assay [10], in assay [11], in assay [12], in [13], in assay [14] and in assay [15] was 12800 titer throughout. For the same molecule, the Hamaglutinin inhibition titer in assay [16], in [17] and in [18] was 12800 titer throughout. The Neutralization titer in [4] is 12800 titer; in assay [5] it was 12800 titer; in [6], 12800 titer; in assay [7], 12800 titer; in assay [8] it was 6400 titer; in assay [9], 12800 titer. Besides, the Neutralization titer in assay [10], in assay [11], in [12], in assay [13], in [14] and in assay [15] was 12800 titer in each case. Besides, the Neutralization titer in assay [16], in assay [17] and in [18] was 12800 titer in each case.

B4: 13D4 chimeric antibody LV (antibody, V domains shown)
VH: QVQLQQSGAELMKPGASVKISCKATGYTFSGHWIEWVKQRPGHGLEWIGEILPGSGNIHYNEKFKGKATFAADTSSNTAYMQLSSLTSEDSAVYYCARLGTTAVERDWYFDVWGQGTLVTVSS
VL: DIVMTQSQKFMSASVGDRVSVTCKASQNVGTHLAWYQQKPGQSPKALIYSASYRYSGVPDRFTGSGSGTDFTLTISNVQSGDLADYFCQQYNNFPLTFGAGTKLEIKR
With B4, the HI titer (hemagglutinin inhibition assay) (n (HI titer = 2^n)) in assay [19] is above 8; in assay [20], 7; in assay [21], 6; in assay [22], 6.5; in assay [23], 4; in assay [24], 7. Also, the HI titer (hemagglutinin inhibition assay) (n (HI titer = 2^n)) in [25] is above 8; in assay [26], 2; in assay [27] it was 4; in assay [28] it was above 8; in assay [29], 6; in [30] it was 4. Moreover, the HI titer (hemagglutinin inhibition assay) (n (HI titer = 2^n)) in assay [31] came out at 3; in [32], 4; in assay [33], 4; in assay [34], 4; in assay [35], 4; in assay [36] it was 5.5. Moreover, the HI titer (hemagglutinin inhibition assay) (n (HI titer = 2^n)) in [37] turned out to be 3; in assay [38], 5.5; in assay [39], 6; in [40], 2; in [41], 3.
